According to article doi:10.1101/2023.11.26.568766 (bioRxiv, 2023):

Biological target: the molecule itself
Test: crystal structure

B1: XccOpgD (D379N), OpgD from Xanthomonas campestris pv. campestris (enzyme)
chain: AKAVGLRRLGQPQPFDYAWLKGQARALAKAPYKSHKQVLPGPLESLNWDQYQSIRYRQDHALWADGNGKFQAKFFHLGLYFHTPVHIYDIVDGKAQQLAYDPAAFDYGRSGLGGKQLPKDLGFAGFRLNTRKDTDRDFSAFLGASYFRAVGKEGQYGQSARGLAIDTGTGGPEEFPDFIAYYLEQPADDSDTVVVYGLLDSPSVSGAYRFAITNGEVLVMDIDSALYPRKAIERLGIGPCTSMYQTGENDRRMDWDWRPEIHDTDGLAMWTGGGEWIWRPLCNPPHLRFNMFVDENPRGFGLLQRDRNFDHYQDDGVFYEKRPCLWVEPKSGWGKGSVQLVEIPTVDETFNNIVAFWNPQAKPQPGQELLMGYRLYWGAHPPASSPLAHCVATRTGLGGIVGQKRSHFSWRFAVDFAGGELAALAKDPKAKVEAVLQVSRGTTEIVSARPLHELKGYRAMFDLVPPDEGTQQIDIRLFLRANGKPLTETWLYQWTPPPASERKIY
- binding result: binds
